{
  "source": "paper PMC7343212",
  "about": "“Lactoferrin-Hexon Interactions Mediate CAR-Independent Adenovirus Infection of Human Respiratory Cells” (Journal of Virology, 2020)",
  "molecules": {"B1": {"name": "bovine lactoferrin (protein, UniProt P24627 20-708, looked up)", "Lactotransferrin": "APRKNVRWCTISQPEWFKCRRWQWRMKKLGAPSITCVRRAFALECIRAIAEKKADAVTLDGGMVFEAGRDPYKLRPVAAEIYGTKESPQTHYYAVAVVKKGSNFQLDQLQGRKSCHTGLGRSAGWIIPMGILRPYLSWTESLEPLQGAVAKFFSASCVPCIDRQAYPNLCQLCKGEGENQCACSSREPYFGYSGAFKCLQDGAGDVAFVKETTVFENLPEKADRDQYELLCLNNSRAPVDAFKECHLAQVPSHAVVARSVDGKEDLIWKLLSKAQEKFGKNKSRSFQLFGSPPGQRDLLFKDSALGFLRIPSKVDSALYLGSRYLTTLKNLRETAEEVKARYTRVVWCAVGPEEQKKCQQWSQQSGQNVTCATASTTDDCIVLVLKGEADALNLDGGYIYTAGKCGLVPVLAENRKSSKHSSLDCVLRPTEGYLAVAVVKKANEGLTWNSLKDKKSCHTAVDRTAGWNIPMGLIVNQTGSCAFDEFFSQSCAPGADPKSRLCALCAGDDQGLDKCVPNSKEKYYGYTGAFRCLAEDVGDVAFVKNDTVWENTNGESTADWAKNLNREDFRLLCLDGTRKPVTEAQSCHLAVAPNHAVVSRSDRAAHVKQVLLHQQALFGKNGKNCPDKFCLFKSETKNLLFNDNTECLAKLGGRPTYEEYLGTEYVTAIANLKKCSTSPLLEACAFLTR", "notes": "bovine lactoferrin from cow milk (Sigma)"}},
  "key": {"[1]": {"system": "A549 cells (HAdV-C5 virions)", "assay": "35S-labeled HAdV-C5 virion binding to A549 cells", "assay_type": "cell-based, Human", "settings": "at this concentration (2 μM), Fig. 1C", "method": "A549 cells were detached using phosphate-buffered saline (PBS) plus 0.05% EDTA with slow rocking at 37°C. Once detached, the cells were centrifuged at 1,500 × g for 5 min, resuspended in growth medium to about 2 × 10^6 cells/ml, and allowed to recover at 37°C, slowly rocking to keep the cells in suspension. While recovering, the HAdV-Lfcin complex was set up. Lfcin (2 μM), or an equivalent volume of PBS, was mixed with ^35S-labeled HAdV (15,000 particles/cell) in medium and left on ice at 4°C for 60 min. After 60 min of recovery, the cells were counted, and 150,000 viable cells were added to each well of a 96-V-shaped-well plate and centrifuged for 5 min at 1,500 × g. Once pelleted, the cells were resuspended in the HAdV-Lfcin solution or in HAdV-PBS solution and incubated on ice for 60 min at 4°C. After 60 min, the cells were pelleted and washed once in medium and once in PBS before the addition of scintillation fluid and quantification using a Wallac 1450 Microbeta counter (Trilux)."}, "[2]": {"system": "human respiratory epithelial A549 cells (HAdV-C5_GFP)", "assay": "HAdV-C5_GFP transduction of A549 cells", "assay_type": "cell-based", "description": "For all transduction experiments, GFP-expressing vectors were used. The HAdV_GFP vector was purchased from Vector Development Laboratory. All mutated HAdV-C5 vectors were generated in the laboratory of A. Plückthun at the University of Zürich using the AdEasy system (Agilent) to contain an internal ribosome entry site (IRES)-luciferase (Luc)-GFP cassette for detection of transduction. To investigate the role of integrins in transduction, HAdV-C5-IRES-GFP with an intact RGD loop in the penton base protein (-DMNDHAIRGDTFATRAE-) and HAdV-C5-ΔRGD-IRES-GFP (-DMNDTSRAEEKRAE-), known not to bind integrins ([40]), were generated. To determine the binding site for hLF/hLfcin on the hexon protein, hexon-mutated vectors were produced with HVR-1 of HAdV-C5 ([43]) replaced with the corresponding sequence of HAdV-A31, as well as a HAdV-C5 vector mutated in HVR-7 ([44]).\nFor experiments in A549 cells, 15,000 cells were seeded into a black 96-well plate with a transparent bottom. For experiments with CHO-K1 cells, 20,000 cells were seeded. After 24 h, HAdV-C5 vectors was complexed with 2 μM Lfcin or with ∼12 μM (1 mg/ml) of LF and, after 60 min, added to the cells on ice. The blocking of CAR using soluble HAdV-C5 fiber knob was performed using 10 μg/ml of recombinant knob. After another 60 min, unbound complex was washed away using Dulbecco’s modified Eagle’s medium (DMEM), followed by final addition of fresh medium. After 44 h, the cells were fixed using 4% paraformaldehyde (PFA) for 10 min, and GFP expression was imaged using a Trophos system (Luminy Biotech Entreprises). For the hexon chimeric viruses, transduction was instead quantified by measuring the luciferase activity at 44 h postinfection using a Pierce luciferase glow assay kit."}},
  "data": [
    {"molecule": "B1", "values": [
      {"measurement": "effect on HAdV-C5 binding to A549 cells (in words)", "setting": "[1]", "result": "no or little effect"},
      {"measurement": "effect of LF on HAdV-C5_GFP transduction of A549 cells (in words)", "setting": "[2]; LF 1 mg/ml preincubated with HAdV-C5_GFP, GFP imaging after 44 h (Fig. 1A)", "result": "Neither bLF nor rhLF affected HAdV-C5_GFP transduction"},
      {"measurement": "effect on HAdV-C5 transduction of A549 cells (in words)", "setting": "[2]; at this concentration (2 μM), Fig. 1D", "result": "no or little effect"}
    ]}
  ]
}
